Experimental data published in patent publication US20230192896A1 (BIOVERATIV THERAPEUTICS, published 2023).
Where a chain is given by its changes, count along the chain named.

B1: BIIB-9-1264 (antibody, V domains shown)
VH: QVQLVQSGAEVKKPGASVKVSCKASGYTFTSYYMHWVRQAPGQGLEWMGIINPSGGSTSYAQKFQGRVTMTRDTSTSTVYMELSSLRSEDTAVYYCARDGDSSVYAFDYWGQGTLVTVSS
VL: DIQMTQSPSSLSASVGDRVTITCQASQDITNYLNWYQQKPGKAPKLLIYDASNLETGVPSRFSGSGSGTDFTFTISSLQPEDIATYYCQQVDDYPFTFGGGTKVEIK
notes: IgG
B2: BIIB-9-1267 (antibody, V domains shown)
VH: B1 VH with G100H, D101G, S102W, S103A, V104I, A106G, F107M, Y109V, L115T
VL: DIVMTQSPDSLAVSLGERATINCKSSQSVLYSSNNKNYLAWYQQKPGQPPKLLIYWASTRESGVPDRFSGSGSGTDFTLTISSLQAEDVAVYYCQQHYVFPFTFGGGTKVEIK
notes: IgG
B3: BIIB-9-470 (antibody, V domains shown)
VH: EVQLVESGGGLVQPGGSLRLSCAASGFTFSSYWMSWVRQAPGKGLEWVANIKQDGSEKYYVDSVKGRFTISRDNAKNSLYLQMNSLRAEDTAVYYCARDAGIAWALDYWGQGTLVTVS
VL: DIQMTQSPSTLSASVGDRVTITCRASQSISSWLAWYQQKPGKAPKLLIYKASSLESGVPSRFSGSGSGTEFTLTISSLQPDDFATYYCQHPHSWTFGGGTKVEIK
notes: IgG
B4: BIIB-9-1270 (antibody, V domains shown)
VH: QVQLVQSGAEVKKPGASVKVSCKASGYTFTSYYMHWVRQAPGQGLEWMGIINPSGGSTSYAQKFQGRVTMTRDTSTSTVYMELSSLRSEDTAVYYCARDTGGYAFDIWGQGTLVTVSS
VL: EIVLTQSPATLSLSPGERATLSCRASQSVSSYLAWYQQKPGQAPRLLIYDASNRATGIPARFSGSGSGTDFTLTISSLEPEDFAVYYCQQSADFPFTFGGGTKVEIK
notes: IgG
B5: BIIB-9-1277 (antibody, V domains shown)
VH: QVQLVQSGAEVKKPGASVKVSCKASGYTFTSYYMHWVRQAPGQGLEWMGIINPSGGSTSYAQKFQGRVTMTRDTSTSTVYMELSSLRSEDTAVYYCARGGTGYYYGSGSRDGYHYYYGMDVWGQGTTVTVSS
VL: B4 VL with L4M, L13V, F83L, D93N, F94W, F96P
notes: IgG
B6: BIIB-9-1271 (antibody, V domains shown)
VH: B4 VH
VL: B4 VL with L4M, L13V, Y32N, D50G, N53T, E79Q, V85T, S91G, A92F, D93S
notes: IgG
B7: BIIB-9-1273 (antibody, V domains shown)
VH: B4 VH
VL: B4 VL with S7Y, D93N
notes: IgG
B8: BIIB-9-1287 (antibody, V domains shown)
VH: QLQLQESGPGLVKPSETLSLTCTVSGGSISSSDYYWGWIRQPPGKGLEWIGSIYYSGSTYYNPSLKSRVTISVDTSKNQFSLKLSSVTAADTAVYYCARSPRHKVRGPNWFDPWGQGTLVTVSS
VL: EIVLTQSPGTLSLSPGERATLSCRASQSVSSSYLAWYQQKPGQAPRLLIYGASSRATGIPDRFSGSGSGTDFTLTISRLEPEDFAVYYCQQYHLHPTFGGGTKVEIK
notes: IgG
B9: BIIB-9-625 (antibody, V domains shown)
VH: QLQLQESGPGLVKPSETLSLTCTVSGGSISSSSYAWGWIRQPPGKGLEWIGSIYYSGSTYYNPSLKSRVTISVDTSKNQFSLKLSSVTAADTAVYYCARDRGWYTEVLDIWGQGTMVTVSS
VL: DIQMTQSPSSLSASVGDRVTITCRASQSISSYLNWYQQKPGKAPKLLIYAASSLQSGVPSRFSGSGSGTDFTLTISSLQPEDFATYYCQQSDTDPPTFGGGTKVEIK
notes: IgG
B10: BIIB-9-1276 (antibody, V domains shown)
VH: B9 VH with A35Y, R101V, W103R, Y104T, T105Y, V107L, L108F
VL: B9 VL with L11V, S28G, Y32W, N34A, S91G, D92N, T93S, D94F, P96I
notes: IgG
B11: BIIB-9-1281 (antibody, V domains shown)
VH: QVQLQQWGAGLLKPSETLSLTCAVYGGSFSGYYWSWIRQPPGKGLEWIGEIDHSGSTNYNPSLKSRVTISVDTSKNQFSLKLSSVTAADTAVYYCARTTRSKYYGMDVWGQGTMVTVSS
VL: B9 VL with S10T, Y32W, N34A, A50K, Q55E, S91A, D92I, T93S, D94L, P96I
notes: IgG
B12: BIIB-9-1272 (antibody, V domains shown)
VH: B4 VH
VL: B9 VL with L11V, S28G, Y32W, N34A, S91A, D92S, T93S, D94F, P96F
notes: IgG
B13: BIIB-9-1283 (antibody, V domains shown)
VH: QVQLVQSGAEVKKPGASVKVSCKASGYTFTSYYMVWVRQAPGQGLEWMGIINPSGGSTSYAQKFQGRVTMTRDTSTSTVYMELSSLRSEDTAVYYCARVPTYRYSYLAFDIWGQGTMVTVSS
VL: B9 VL with L11V, S28G, Y32W, N34A, S91A, D92S, T93S, D94F
notes: IgG
B14: BIIB-9-1274 (antibody, V domains shown)
VH: B4 VH
VL: B9 VL with L11V, S28G, Y32W, N34A, S91A, D92N, T93S, D94F, P96F
notes: IgG
B15: BIIB-9-1279 (antibody, V domains shown)
VH: QVQLVQSGAEVKKPGASVKVSCKASGYTFTSYYMHWVRQAPGQGLEWMGIINPSGGSTSYAQKFQGRVTMTRDTSTSTVYMELSSLRSEDTAVYYCARGPTDSSGYLDMDVWGKGTTVTVSS
VL: B9 VL with L11V, S28G, Y32W, N34A, S91A, D92S, T93S, D94F
notes: IgG
B16: BIIB-9-1265 (antibody, V domains shown)
VH: B9 VH with A35Y, R101G, G102R, W103H, T105Y, V107L, L108F, I110Y, M116L
VL: B9 VL with L11V, S28G, Y32W, N34A, S91G, D92N, T93S, D94F, P96I
notes: IgG
B17: BIIB-9-445 (antibody, V domains shown)
VH: QVQLVQSGAEVKKPGASVKVSCKASGYTFTSYYIHWVRQAPGQGLEWMGIINPSGGSTSYAQKFQGRVTMTRDTSTSTVYMELSSLRSEDTAVYYCARDVGQDYWFDLWGRGTLVTVSS
VL: EIVMTQSPATLSVSPGERATLSCRASQSVSSNLAWYQQKPGQAPRLLIYSASTRATGIPARFSGSGSGTEFTLTISSLQSEDFAVYYCQQYDNFPFTFGGGTKVEIK
notes: IgG
B18: BIIB-9-1282 (antibody, V domains shown)
VH: B13 VH
VL: B17 VL with S50G, Y91H, D92N, N93H, F94L, F96I
notes: IgG
B19: BIIB-9-1269 (antibody, V domains shown)
VH: B17 VH with I34M, V100R, D103Y, W105H
VL: B9 VL with L11V, T20A, S28G, Y32W, N34A, S91A, D92S, T93S, D94F, P96F
notes: IgG
B20: BIIB-9-1268 (antibody, V domains shown)
VH: B17 VH with I34M, V100P, G101P, Q102S, D103W, W105V, L108I, R111Q, L114M
VL: B4 VL with L4M, S91A, A92T, D93V, F94W
notes: IgG
B21: BIIB-9-1285 (antibody, V domains shown)
VH: B13 VH
VL: B17 VL with S50G, Y91A, D92S, F96P
notes: IgG
B22: BIIB-9-1284 (antibody, V domains shown)
VH: B13 VH
VL: B17 VL with M4L, S30G, S50G, Y91H, D92N, N93H, F94L, F96I
notes: IgG
B23: BIIB-9-1278 (antibody, V domains shown)
VH: B13 VH with V99G, T101G, Y102E, R103L, Y104G, S105Y
VL: B17 VL with S50G, Y91H, D92A, F96P
notes: IgG

target: T1, free FIXa (activated Factor IX) (human, UniProt P00740 47-191; P00740 227-461); assay: BLI; class meaning: paragraph 914
T1 construct: BLI antigen bought from Haematologic Technologies (HCIXA-0050); also called factor IXa

Binding result, binds:
B1, B2, B3, B4, B5, B6, B7, B8, B9, B10, B11, B12, B13, B14, B15, B16, B17, B18, B19, B20, B21, B22, B23

target: T2, FIXa-SM (FIXa+EGR-CMK) (human, UniProt P00740 47-191; P00740 227-461, EGR-CMK (L-Glu-Gly-Arg chloromethyl ketone) covalently bound to the active site); assay: BLI; class meaning: paragraph 914
T2 construct: BLI antigen bought from Haematologic Technologies (HCIXA-EGR); also called FIXa with substrate mimic

Binding result, binds:
B1, B2, B3, B4, B5, B6, B7, B8, B9, B10, B11, B12, B13, B14, B15, B16, B17, B18, B19, B20, B21, B22, B23
